Results from paper PMC4739419, “Mutations in the nucleotide binding and hydrolysis domains of Helicobacter pylori MutS2 lead to altered biochemical activities and inactivation of its in vivo function” (BMC Microbiology, 2016).

Assays:
H. pylori strain 26695 = test: Recombination assay (incorporation of streptomycin resistant chromosomal DNA); format: cell-based, Helicobacter pylori; details: for fold higher recombination / transformation frequency than the wild-type strain: HpMutS2-E413A over-expressed in the wild-type strain
Procedure: The construction of hpmutS2-disrupted strain, complements, and calculations of recombination frequencies were performed as described in [7]. Briefly, H. pylori strain 26695 was used to disrupt hpmutS2 gene by allelic replacement using a chloramphenicol resistance cassette and to generate integrations. The wild-type and mutants of HpMutS2 preceded by ureA promoter and containing an apramycin resistance cassette were integrated into a non-essential ureA locus. The correct constructions were verified by PCR and the expression of proteins was monitored by Western blots. Recombination frequencies were determined by rate of incorporation of streptomycin resistant isogenic total chromosomal DNA (200 ng) per cfu. P values were calculated using the Mann–Whitney U test. At least two independent clones of each construction were used to determine the recombination frequencies. All DNA constructs were introduced using natural transformation. H. pylori was grown on BAB plates at 37 °C under microaerophillic conditions.

[1] = molecular target: the molecule itself; test: SEC; Superose-6 HR 10/30, buffer B (50 mM Tris pH 8.0, 100 mM NaCl), 0.3 ml/min, approximately 150 ug protein injected; mass from a plot of Ve/Vo versus log of molecular mass of standards

Row | Molecule | fold higher recombination / transformation frequency than the wild-type strain (H. pylori strain 26695) | binding result [1] | Relative value (recombinant frequency relative to Wt) (H. pylori strain 26695; Wt = 1) | Recombinant frequency (H. pylori strain 26695; streptomycin resistance colonies per recipient cfu, average (±standard deviation))
1 | HpMutS2-E413A (enzyme, also called Walker-B mutant) MSDAPKRSLNPTLMMNNNNTPPKPLEESLDLKEFIALFKTFFAKERDTIALENDLKQTFTYLNEVDAIGLPTPKSVKESDLIIIKLTKLGTLHLDEIFEIVKRLHYIVVLQNAFKTFTHLKFHERLNAIVLPPFFNDLIALFDDEGKIKQGANATLDALNESLNRLKKESVKIIHHYARSKELAPYLVDTQSHLKHGYECLLLKSGFSGAIKGVVLERSANGYFYLLPESAQKIAQKIAQIGNEIDCCIVEMCQTLSHSLQKHLLFLKFLFKEFDFLDSLQARLNFAKAYNLEFVMPSFTQKKMILENFSHPILKEPKPLNLKFEKSMLAVTGVNAGGKTMLLKSLLSAAFLSKHLIPMKINAHHSIIPYFKEIHAIINDPQNSANNISTFAGRMKQFSALLSKENMLLGVDAIELGTDADEASSLYKTLLEKLLKQNNQIIITTHHKRLSVLMAENKEVELLAALYDEEKERPTYTFLKGVIGKSYAFETALRYGVPHFLIEKAKTFYGEDKEKLNVLIENSSALERELKQKNEHLENALKEQEYLKNAWLLEMEKQKEIFHNKKLELEKSYQQALNILKSEVASKDTSSMHKEIHKASEILSKHKTNQEIPQIITNFQANEKARYKNESVLIVQILDKGYYWIETELGMRLKAHGSLLKKIQKPPKNKFKPPKTTIPKPKEASLRLDLRGQRSEEALDLLDAFLNDALLGGFEEVLICHGKGSGILEKFVKEFLKNHPKVVSFSDAPINLGGSGVKIVKL | ~ 5 fold | binds | – | –
2 | HpMutS2: Helicobacter pylori MutS2 (1-762), C-terminally His6-tagged wild-type protein, nuclease and ABC ATPase (protein, left off: His6, C-terminal, state not stated, Helicobacter pylori MutS2 (1-762), C-terminally His6-tagged wild-type protein, nuclease and ABC ATPase) MSDAPKRSLNPTLMMNNNNTPPKPLEESLDLKEFIALFKTFFAKERDTIALENDLKQTFTYLNEVDAIGLPTPKSVKESDLIIIKLTKLGTLHLDEIFEIVKRLHYIVVLQNAFKTFTHLKFHERLNAIVLPPFFNDLIALFDDEGKIKQGANATLDALNESLNRLKKESVKIIHHYARSKELAPYLVDTQSHLKHGYECLLLKSGFSGAIKGVVLERSANGYFYLLPESAQKIAQKIAQIGNEIDCCIVEMCQTLSHSLQKHLLFLKFLFKEFDFLDSLQARLNFAKAYNLEFVMPSFTQKKMILENFSHPILKEPKPLNLKFEKSMLAVTGVNAGGKTMLLKSLLSAAFLSKHLIPMKINAHHSIIPYFKEIHAIINDPQNSANNISTFAGRMKQFSALLSKENMLLGVDEIELGTDADEASSLYKTLLEKLLKQNNQIIITTHHKRLSVLMAENKEVELLAALYDEEKERPTYTFLKGVIGKSYAFETALRYGVPHFLIEKAKTFYGEDKEKLNVLIENSSALERELKQKNEHLENALKEQEYLKNAWLLEMEKQKEIFHNKKLELEKSYQQALNILKSEVASKDTSSMHKEIHKASEILSKHKTNQEIPQIITNFQANEKARYKNESVLIVQILDKGYYWIETELGMRLKAHGSLLKKIQKPPKNKFKPPKTTIPKPKEASLRLDLRGQRSEEALDLLDAFLNDALLGGFEEVLICHGKGSGILEKFVKEFLKNHPKVVSFSDAPINLGGSGVKIVKL | ~ 8 fold | – | 7.9 | 39.2 (±29.2) x10^−4
